T1: BFA2 (MBP-BFA2, mature) (Arabidopsis thaliana, UniProt O65567 62-904)
T1 sequence: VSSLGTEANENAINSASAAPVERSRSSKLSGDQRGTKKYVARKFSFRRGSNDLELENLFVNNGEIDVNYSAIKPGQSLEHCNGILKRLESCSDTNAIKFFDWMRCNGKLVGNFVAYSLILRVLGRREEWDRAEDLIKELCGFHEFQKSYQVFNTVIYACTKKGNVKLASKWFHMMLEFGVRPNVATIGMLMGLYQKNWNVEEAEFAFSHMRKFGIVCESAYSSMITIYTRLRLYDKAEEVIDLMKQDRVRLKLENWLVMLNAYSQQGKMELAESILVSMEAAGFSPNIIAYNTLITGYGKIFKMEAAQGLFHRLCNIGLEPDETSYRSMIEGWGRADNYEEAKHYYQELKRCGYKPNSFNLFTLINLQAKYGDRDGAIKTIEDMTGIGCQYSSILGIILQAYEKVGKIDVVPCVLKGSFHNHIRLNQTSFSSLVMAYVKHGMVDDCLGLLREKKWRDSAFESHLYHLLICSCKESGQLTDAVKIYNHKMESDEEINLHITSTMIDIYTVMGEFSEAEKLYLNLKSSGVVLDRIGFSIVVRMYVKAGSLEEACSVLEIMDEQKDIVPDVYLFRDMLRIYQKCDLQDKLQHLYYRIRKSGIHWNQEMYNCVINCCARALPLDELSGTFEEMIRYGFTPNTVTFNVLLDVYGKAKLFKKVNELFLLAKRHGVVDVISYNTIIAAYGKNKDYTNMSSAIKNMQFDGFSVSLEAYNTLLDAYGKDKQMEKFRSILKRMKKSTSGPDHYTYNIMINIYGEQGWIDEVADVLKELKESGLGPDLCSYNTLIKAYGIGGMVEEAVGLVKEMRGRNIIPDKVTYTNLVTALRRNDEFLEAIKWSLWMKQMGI

B1: atpF sRNA (atpF-atpA intergenic) (ssRNA)
RNA: UAUAGGCAUUAUUUUUUUUUCU
B2: ndhA 5' end sRNA (ssRNA)
RNA: UUAUGACGAUACUCGGUAGCAUAGAUAUAA

Columns and labels:
BFA2 (MBP-BFA2, mature) [1] = target: T1, BFA2 (MBP-BFA2, mature); assay: EMSA; 1 ug tRNA, 2 mM Mg2+; complex detected at protein 3x molar over RNA; 10 mM HEPES pH 7.5, 20 mM KCl, 2 mM MgCl2, 1 mM DTT, 5% glycerol, 1 ug yeast tRNA, 20 C, 30 min; 6% native PAGE with 2.5% glycerol; conditions: protein: recombinant; tags: MBP (pMAL-c5x); label: 5'-biotin on probe; single strand
BFA2 (MBP-BFA2, mature) [2] = target: T1, BFA2 (MBP-BFA2, mature); assay: competition; unlabeled ndhA RNA; 1000-fold excess does not affect complex with labeled atpF sRNA; 10 mM HEPES pH 7.5, 20 mM KCl, 2 mM MgCl2, 1 mM DTT, 5% glycerol, 1 ug yeast tRNA, 20 C, 30 min; 6% native PAGE with 2.5% glycerol; conditions: protein: recombinant; tags: MBP (pMAL-c5x); label: none; single strand

| Binder | binding result (BFA2 (MBP-BFA2, mature) [1]) | binding result (BFA2 (MBP-BFA2, mature) [2]) |
| --- | --- | --- |
| B1 | binds |  |
| B2 |  | no binding |
